According to patent publication US20250268941A1 (AUTOLUS, published 2025):

Columns and labels:
[1] = molecular target: BCMA on the cell surface (SupT1.BCMAhigh, SupT1.BCMAlow, MM.1s, JeKo-1 cells) (human) (UniProt Q02223); assay: cell-based or functional assay
[2] = molecular target: T1, BCMA-Avi (Homo sapiens, UniProt Q02223, biotinylated at the AviTag (implied by detection with streptavidin-APC); position not given); assay: flow cytometry of live CD3+ T cells transduced with CAT-41BB-ζ alone, stained with BCMA-AviTag plus streptavidin-APC; the staining concentration is not given [a]
T1 construct: soluble recombinant staining reagent; also called BCMA-AviTag; BCMA-Avi/Strep-APC
T1 sequence (recombinant BCMA with AviTag, looked up): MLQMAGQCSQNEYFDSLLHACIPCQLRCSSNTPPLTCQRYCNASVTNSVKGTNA

[3] = molecular target: T2, soluble BCMA ectodomain (human, UniProt Q02223 1-54); assay: SPR, soluble BCMA ectodomain as analyte
T2 construct: extracellular domain
T2 sequence (looked up): T1 sequence (recombinant BCMA with AviTag, looked up)
Protocol: (§1) FIG. 6—Surface plasmon resonance sensogram of binding kinetics between D8 IgG and BCMA is shown. BCMA starting concentration was 50 nM with serial dilutions to 0.19 nM.
(§2) D8 IgG binding to soluble BCMA ectodomain was also studied using surface plasmon resonance (FIG. 6).

[4] = molecular target: T2, soluble BCMA ectodomain; assay: SPR, BCMA 50 nM serially diluted to 0.19 nM
Protocol: as §1, §2

bb2121 CAR was tested, and the viable SupT1 BCMAlow targets remaining, 24 h co-culture, E:T 1:8 [1] was 21.1%.

Molecule LCAR-B38M CAR has a viable SupT1 BCMAlow targets remaining, 24 h co-culture, E:T 1:8 [1] of 25.5%.

B1: CAT-41BB-ζ CAR (other)
chain: QVQLQQSGPELVKPGASVKISCKASGYAFSSSWMNWVKQRPGKGLEWIGRIYPGDEDTNYSGKFKDKATLTADKSSTTAYMQLSSLTSEDSAVYFCARSLLYGDYLDYWGQGTTLTVSSGGGGSGGGGSGGGGSQIVLTQSPAIMSASPGEKVTMTCSASSSVSYMHWYQQKSGTSPKRWIYDTSKLASGVPDRFSGSGSGTSYFLTINNMEAEDAATYYCQQWNINPLTFGAGTKLELKRSDPTTTPAPRPPTPAPTIASQPLSLRPEACRPAAGGAVHTRGLDFACDIYIWAPLAGTCGVLLLSLVITLYCKRGRKKLLYIFKQPFMRPVQTTQEEDGCSCRFPEEEEGGCELRVKFSRSADAPAYQQGQNQLYNELNLGRREEYDVLDKRRGRDPEMGGKPRRKNPQEGLYNELQKDKMAEAYSEIGMKGERRRGKGHDGLYQGLSTATKDTYDALHMQALPPR
notes: Expressed on primary human T cells; also called CAT19 CAR; CAT19CAR using Campana architecture
B1: no binding [2].

B2: D8 IgG (antibody, V domains shown)
VH: EVQLVESGGGLVQPGRSLKLSCAASGFIFSDYNMAWVRQAPKKGLEWVATIIYDGSSTNHGDSVKGRFTISRDNAKSTLYLQMDSLRSEDTATYYCATRPGPFAYWGQGTLVTVS
VL: DVVLTQTPPTLSATIGQSVSISCRSSQSLLHSNGNTYLHWLLQRPGQSPQFLIYLVSGLGSGVPNRFSGSGSGTDFTLKISGVEAEDLGIYYCVHGTHAWTVGGGTKLELK
In the case of B2, the Kd [3] is reported as 0.126 nM and the koff [4] is reported as 0.00433 s⁻¹.
